Assay results published in patent EP4818204A1 (Nanjing Leads Biolabs Co., Ltd., dated 2026).
Like-named read-outs stand apart in the source and are kept apart here.

Legend:
Assay in all cases: ELISA, coated protein, antibody at 4 µg/mL
human GFRα1 protein [1] = target: T1, human GFRα1 protein (human, UniProt P56159 25-429, limits assumed)
T1 construct: Bought
T1 sequence (looked up): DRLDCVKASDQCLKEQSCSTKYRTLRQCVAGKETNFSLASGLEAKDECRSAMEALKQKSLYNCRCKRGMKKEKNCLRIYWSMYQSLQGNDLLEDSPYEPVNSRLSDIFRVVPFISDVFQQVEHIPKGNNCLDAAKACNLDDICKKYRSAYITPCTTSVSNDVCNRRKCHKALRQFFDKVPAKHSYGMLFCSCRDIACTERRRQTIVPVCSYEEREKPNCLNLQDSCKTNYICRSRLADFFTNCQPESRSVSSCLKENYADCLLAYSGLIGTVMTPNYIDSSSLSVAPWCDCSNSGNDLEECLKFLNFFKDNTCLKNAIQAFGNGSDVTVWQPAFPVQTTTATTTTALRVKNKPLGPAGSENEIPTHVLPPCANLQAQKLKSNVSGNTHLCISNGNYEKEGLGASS

human GDF11 protein [2] = target: T2, human GDF11 protein (human, UniProt O95390 299-407)
T2 construct: Bought
T2 sequence (looked up): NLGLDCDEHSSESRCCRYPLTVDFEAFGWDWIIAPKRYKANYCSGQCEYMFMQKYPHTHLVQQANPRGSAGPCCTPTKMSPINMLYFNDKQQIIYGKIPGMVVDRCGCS

human GDF2 protein [3] = target: T3, human GDF2 protein (human, UniProt Q9UK05 320-429)
T3 construct: Bought
T3 sequence (looked up): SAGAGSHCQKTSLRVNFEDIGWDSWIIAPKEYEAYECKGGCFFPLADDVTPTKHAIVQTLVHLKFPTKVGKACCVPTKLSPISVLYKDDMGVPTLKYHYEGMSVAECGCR

Human GDF15 protein [4] = target: T4, Human GDF15 protein (human, UniProt Q99988 197-308)
T4 construct: Natural GDF15 is said to be a disulfide-linked homodimer; also called Human-GDF15-his
T4 sequence: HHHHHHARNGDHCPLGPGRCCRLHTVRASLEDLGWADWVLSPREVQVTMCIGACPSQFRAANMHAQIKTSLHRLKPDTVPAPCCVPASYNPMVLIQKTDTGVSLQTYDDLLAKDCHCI

[5] = target: human GDF8 protein (human) (UniProt O14793)
human Activin A protein [6] = target: T5, human Activin A protein (human, UniProt P08476 311-426)
T5 construct: Bought; Activin A is by nature a dimer of inhibin beta A chains
T5 sequence (looked up): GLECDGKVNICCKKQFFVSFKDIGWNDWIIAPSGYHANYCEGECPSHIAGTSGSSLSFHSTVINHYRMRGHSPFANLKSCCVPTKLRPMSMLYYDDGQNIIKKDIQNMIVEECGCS

human GDF3 protein [7] = target: T6, human GDF3 protein (human, UniProt Q9NR23 251-364, limits assumed)
T6 construct: Bought
T6 sequence (looked up): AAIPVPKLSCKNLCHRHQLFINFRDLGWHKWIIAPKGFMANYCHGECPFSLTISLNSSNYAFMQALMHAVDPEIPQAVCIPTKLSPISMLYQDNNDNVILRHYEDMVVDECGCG

human GDF1 protein [8] = target: T7, human GDF1 protein (human, UniProt P27539 254-372, limits assumed)
T7 construct: Bought
T7 sequence (looked up): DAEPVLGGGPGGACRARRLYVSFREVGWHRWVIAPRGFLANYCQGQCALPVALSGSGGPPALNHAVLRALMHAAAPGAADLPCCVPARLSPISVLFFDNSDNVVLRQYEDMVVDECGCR

human Activin B protein [9] = target: T8, human Activin B protein (human, UniProt P09529 293-407)
T8 construct: Bought; Activin B is by nature a dimer of inhibin beta B chains
T8 sequence (looked up): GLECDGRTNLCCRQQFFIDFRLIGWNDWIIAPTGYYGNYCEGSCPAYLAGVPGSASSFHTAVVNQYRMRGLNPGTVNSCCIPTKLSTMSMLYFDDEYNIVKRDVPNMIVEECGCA

[10] = target: human AMH protein (human) (UniProt P03971)
human BMP4 protein [11] = target: T9, human BMP4 protein (human, UniProt P12644 293-408)
T9 construct: Bought
T9 sequence (looked up): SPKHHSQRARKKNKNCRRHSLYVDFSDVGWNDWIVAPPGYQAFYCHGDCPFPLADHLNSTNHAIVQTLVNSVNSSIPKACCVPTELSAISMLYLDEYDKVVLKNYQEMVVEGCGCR

human BMP2 protein [12] = target: T10, human BMP2 protein (human, UniProt P12643 283-396)
T10 construct: Bought
T10 sequence (P12643 283-396 limits assumed): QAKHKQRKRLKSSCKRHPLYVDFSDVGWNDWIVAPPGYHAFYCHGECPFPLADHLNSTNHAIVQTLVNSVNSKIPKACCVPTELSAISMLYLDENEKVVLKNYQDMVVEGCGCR

human TGFβ1 protein [13] = target: T11, human TGFβ1 protein (human, UniProt P01137 279-390)
T11 construct: Bought
T11 sequence (P01137 279-390 limits assumed): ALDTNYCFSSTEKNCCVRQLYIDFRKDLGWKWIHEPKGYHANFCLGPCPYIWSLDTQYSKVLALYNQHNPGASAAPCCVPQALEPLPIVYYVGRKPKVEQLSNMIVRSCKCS

human GDNF protein [14] = target: T12, human GDNF protein (human, UniProt P39905 78-211)
T12 construct: Bought
T12 sequence (looked up): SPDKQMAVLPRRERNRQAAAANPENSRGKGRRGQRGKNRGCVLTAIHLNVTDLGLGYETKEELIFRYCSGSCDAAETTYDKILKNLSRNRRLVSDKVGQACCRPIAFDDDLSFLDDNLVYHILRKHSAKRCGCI

human GFRα1 protein [15] = target: T1, human GFRα1 protein; remark: listed apart in the source
human GDF11 protein [16] = target: T2, human GDF11 protein; remark: listed apart in the source
human GDF2 protein [17] = target: T3, human GDF2 protein; remark: listed apart in the source
Human GDF15 protein [18] = target: T4, Human GDF15 protein; remark: listed apart in the source
[19] = target: human GDF8 protein (human) (UniProt O14793); remark: listed apart in the source
human Activin A protein [20] = target: T5, human Activin A protein; remark: listed apart in the source
human GDF3 protein [21] = target: T6, human GDF3 protein; remark: listed apart in the source
human GDF1 protein [22] = target: T7, human GDF1 protein; remark: listed apart in the source
human Activin B protein [23] = target: T8, human Activin B protein; remark: listed apart in the source
[24] = target: human AMH protein (human) (UniProt P03971); remark: listed apart in the source
human BMP4 protein [25] = target: T9, human BMP4 protein; remark: listed apart in the source
human BMP2 protein [26] = target: T10, human BMP2 protein; remark: listed apart in the source
human TGFβ1 protein [27] = target: T11, human TGFβ1 protein; remark: listed apart in the source
human GDNF protein [28] = target: T12, human GDNF protein; remark: listed apart in the source

For “IgG control (Sino Biological, Cat. No.: HG1K) (antibody)”, the OD value (OD 450 nm-620 nm) (human GFRα1 protein [1]) was 0.125, the OD value (OD 450 nm-620 nm) (human GDF11 protein [2]) was 0.038 and the OD value (OD 450 nm-620 nm) (human GDF2 protein [3]) was 0.0622. For the same substance, the OD value (OD 450 nm-620 nm) (Human GDF15 protein [4]) was 0.0386, the OD value (OD 450 nm-620 nm) [5] was 0.0351 and the OD value (OD 450 nm-620 nm) (human Activin A protein [6]) was 0.0524. For the same substance, the OD value (OD 450 nm-620 nm) (human GDF3 protein [7]) was 0.04, the OD value (OD 450 nm-620 nm) (human GDF1 protein [8]) was 0.0416 and the OD value (OD 450 nm-620 nm) (human Activin B protein [9]) was 0.168. It also gave an OD value (OD 450 nm-620 nm) [10] of 0.0465, an OD value (OD 450 nm-620 nm) (human BMP4 protein [11]) of 0.0439 and an OD value (OD 450 nm-620 nm) (human BMP2 protein [12]) of 0.0463. It also gave an OD value (OD 450 nm-620 nm) (human TGFβ1 protein [13]) of 0.0376, an OD value (OD 450 nm-620 nm) (human GDNF protein [14]) of 0.036 and an OD value (OD 450 nm-620 nm) (human GFRα1 protein [15]) of 0.0807. It also gave an OD value (OD 450 nm-620 nm) (human GDF11 protein [16]) of 0.0659, an OD value (OD 450 nm-620 nm) (human GDF2 protein [17]) of 0.0444 and an OD value (OD 450 nm-620 nm) (Human GDF15 protein [18]) of 0.043. It also gave an OD value (OD 450 nm-620 nm) [19] of 0.0485, an OD value (OD 450 nm-620 nm) (human Activin A protein [20]) of 0.0474 and an OD value (OD 450 nm-620 nm) (human GDF3 protein [21]) of 0.0556. The OD value (OD 450 nm-620 nm) (human GDF1 protein [22]) was 0.101, the OD value (OD 450 nm-620 nm) (human Activin B protein [23]) was 0.082 and the OD value (OD 450 nm-620 nm) [24] was 0.0569. The OD value (OD 450 nm-620 nm) (human BMP4 protein [25]) was 0.0464, the OD value (OD 450 nm-620 nm) (human BMP2 protein [26]) was 0.055 and the OD value (OD 450 nm-620 nm) (human TGFβ1 protein [27]) was 0.111. It also gave an OD value (OD 450 nm-620 nm) (human GDNF protein [28]) of 0.0493.
